Here are results for one substance from PMC3579940.

The target in one assay is biotin-AR-CTF. Kind of assay: SPR; BIAcore S51; biotin-EGFR-ligand-CTFs immobilised (~1000 RU) on streptavidin chips; GST-ZnF5-8 0.03-1.0 µM injected at 30 µL/min for 2 min, 25°C; 10 mM HEPES pH 7.4, 150 mM NaCl, 0.005% Surfactant P20; KD = kd/ka.
The target in a further assay is biotin-EPR-CTF. The description is as above.

Consider “recombinant GST-tagged ZnF5-8 of PLZF (domain or fragment)”, for which, in the assay with biotin-AR-CTF, the Kd was determined as 0.0765 µM, the koff was 0.00144 s⁻¹ and the kon was 18700 M⁻¹ s⁻¹. Further, in the assay with biotin-EPR-CTF, the Kd amounted to 0.146 µM, the koff was 0.000806 s⁻¹ and the on-rate constant (kon) came out at 5610 M⁻¹ s⁻¹.

Broadly, the Kd is a measure of binding affinity in units of concentration. A lower Kd goes with higher affinity. As a reminder, the koff is the first-order rate constant of dissociation. Low readings indicate a long-lived complex, high ones a short-lived complex. Usually kon stands for the rate constant with which the complex forms. A low value points to slower complex formation.
